T1: MdNAC4-GST (Malus domestica, UniProt B6DXL4 1-350)
T1 sequence: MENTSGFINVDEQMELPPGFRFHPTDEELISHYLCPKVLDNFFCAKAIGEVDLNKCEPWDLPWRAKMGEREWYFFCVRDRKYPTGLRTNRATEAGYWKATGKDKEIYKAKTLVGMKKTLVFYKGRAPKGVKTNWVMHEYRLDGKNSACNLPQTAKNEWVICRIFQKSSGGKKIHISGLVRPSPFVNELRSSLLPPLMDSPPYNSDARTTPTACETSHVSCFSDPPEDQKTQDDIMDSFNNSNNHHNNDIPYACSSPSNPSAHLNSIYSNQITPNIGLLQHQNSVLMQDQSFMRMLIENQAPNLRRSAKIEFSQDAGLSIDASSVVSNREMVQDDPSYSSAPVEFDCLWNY


Key:
MdNAC4-GST [1] = target: T1, MdNAC4-GST; assay: EMSA; EMSA binding buffer (composition not given), 24 °C, 30 min in the dark; details: protein: recombinant; tags: GST (pGEX-4T-1 type primers GST-MdNAC4-F/R); chain copies: 2; blunt
MdNAC4-GST [2] = target: T1, MdNAC4-GST; assay: EMSA; unlabeled probe competes; EMSA binding buffer (composition not given), 24 °C, 30 min in the dark; details: protein: recombinant; tags: GST (pGEX-4T-1 type primers GST-MdNAC4-F/R); chain copies: 2; label: biotin; blunt

Row | Binder | binding result (MdNAC4-GST [1]) | binding result (MdNAC4-GST [2])
1 | MdPAO Mut probe (dsDNA) DNA 1: AGTTATCCATCCGTCTAAAACCAAT DNA 2: ATTGGTTTTAGACGGATGGATAACT | no binding | 
2 | MdNYC1 promoter probe (ABRE) (dsDNA) DNA 1: ATATAGGCACGTGAAGGGAGGACAGAGATG DNA 2: CATCTCTGTCCTCCCTTCACGTGCCTATAT |  | binds
3 | MdPAO promoter probe (ABRE) (dsDNA) DNA 1: AGTTATCCATACGTGTAAAACCAAT DNA 2: ATTGGTTTTACACGTATGGATAACT |  | binds

Source: article PMC9280364, “MdNAC4 Interacts With MdAPRR2 to Regulate Nitrogen Deficiency-Induced Leaf Senescence in Apple (Malus domestica)”
